The values that follow come from patent publication US20230212260A1 (published 2023).

One assay deals with CD40 (UniProt P25942). The assay can be described thus: cell-based or functional assay.
A further assay has as its target T1, CD27 (UniProt P26842 20-260, limits assumed).
T1 sequence (looked up): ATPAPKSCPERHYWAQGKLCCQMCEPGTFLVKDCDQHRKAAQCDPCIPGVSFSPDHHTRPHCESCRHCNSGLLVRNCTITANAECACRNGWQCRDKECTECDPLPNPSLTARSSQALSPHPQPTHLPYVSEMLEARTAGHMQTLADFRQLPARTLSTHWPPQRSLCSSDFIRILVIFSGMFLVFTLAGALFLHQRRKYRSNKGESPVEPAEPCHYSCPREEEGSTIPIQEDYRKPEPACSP
The assay can be described thus: cell-based or functional assay.

The next assay deals with T2, human CEA (human, UniProt P06731 35-685, limits assumed).
T2 sequence (looked up): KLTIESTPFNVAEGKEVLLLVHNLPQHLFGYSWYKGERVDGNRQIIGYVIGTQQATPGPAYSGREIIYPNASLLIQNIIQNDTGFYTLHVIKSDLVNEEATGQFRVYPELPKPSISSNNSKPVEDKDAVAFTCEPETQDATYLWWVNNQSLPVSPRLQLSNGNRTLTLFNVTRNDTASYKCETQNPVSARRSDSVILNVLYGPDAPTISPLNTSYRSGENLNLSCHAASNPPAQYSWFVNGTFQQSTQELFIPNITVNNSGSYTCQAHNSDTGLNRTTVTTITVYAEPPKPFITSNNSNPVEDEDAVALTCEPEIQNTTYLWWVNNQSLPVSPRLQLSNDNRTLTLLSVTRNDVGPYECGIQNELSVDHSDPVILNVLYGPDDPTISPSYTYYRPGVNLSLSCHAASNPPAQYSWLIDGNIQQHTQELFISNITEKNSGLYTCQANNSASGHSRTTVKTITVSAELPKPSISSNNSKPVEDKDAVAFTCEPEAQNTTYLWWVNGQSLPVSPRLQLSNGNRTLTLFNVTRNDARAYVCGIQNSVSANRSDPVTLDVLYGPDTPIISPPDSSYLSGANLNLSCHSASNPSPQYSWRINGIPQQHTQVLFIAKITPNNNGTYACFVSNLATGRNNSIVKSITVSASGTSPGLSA
Kind of assay: ELISA.

Chain of CD40 (P25942 21-277 limits assumed): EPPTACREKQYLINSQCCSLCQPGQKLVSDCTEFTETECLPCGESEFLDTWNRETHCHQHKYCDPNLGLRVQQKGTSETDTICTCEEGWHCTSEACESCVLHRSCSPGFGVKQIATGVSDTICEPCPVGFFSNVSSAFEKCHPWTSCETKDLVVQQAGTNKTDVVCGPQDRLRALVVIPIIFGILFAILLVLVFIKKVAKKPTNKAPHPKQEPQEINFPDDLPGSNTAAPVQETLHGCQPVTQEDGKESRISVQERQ

Take Trimeric CD40L (ligand): the immature dendritic cell activation assay, activation level (CD86+ / CD83+), 100 ng/ml, 24 h with CD40 was 46.1%.

B1: aPDL1-scCD27L-SAB (bispecific antibody, human IgG1, kappa)
chain: QSLGWDVAELQLNHTGPQQDPRLYWQGGPALGRSFLHGPELDKGQLRIHRDGIYMVHIQVTLAICSSTTASRHHPTTLAVGICSPASRSISLLRLSFHQGCTIASQRLTPLARGDTLCTNLTGTLLPSRNTDETFFGVQWVRPGSGSGNGSESLGWDVAELQLNHTGPQQDPRLYWQGGPALGRSFLHGPELDKGQLRIHRDGIYMVHIQVTLAICSSTTASRHHPTTLAVGICSPASRSISLLRLSFHQGCTIASQRLTPLARGDTLCTNLTGTLLPSRNTDETFFGVQWVRPGSGSGNGSESLGWDVAELQLNHTGPQQDPRLYWQGGPALGRSFLHGPELDKGQLRIHRDGIYMVHIQVTLAICSSTTASRHHPTTLAVGICSPASRSISLLRLSFHQGCTIASQRLTPLARGDTLCTNLTGTLLPSRNTDETFFGVQWVRPGSGSDKTHTCPPCPAPELLGGPSVFLFPPKPKDTLMISRTPEVTCVVVDVSHEDPEVKFNWYVDGVEVHNAKTKPREEQYSSTYRVVSVLTVLHQDWLNGKEYKCKVSNKALPAPIEKTISKAKGQPREPQVYTLPPCRDELTKNQVSLWCLVKGFYPSDIAVEWESNGQPENNYKTTPPVLDSDGSFFLYSKLTVDKSRWQQGNVFSCSVMHEALHNHYTQKSLSLSPGK
heavy: EVQLLESGGGLVQPGGSLRLSCAASGFTFSSYIMMWVRQAPGKGLEWVSSIYPSGGITFYADTVKGRFTISRDNSKNTLYLQMNSLRAEDTAVYYCARIKLGTVTTVDYWGQGTLVTVSSASTKGPSVFPLAPSSKSTSGGTAALGCLVKDYFPEPVTVSWNSGALTSGVHTFPAVLQSSGLYSLSSVVTVPSSSLGTQTYICNVNHKPSNTKVDKKVEPKSCDKTHTCPPCPAPELLGGPSVFLFPPKPKDTLMISRTPEVTCVVVDVSHEDPEVKFNWYVDGVEVHNAKTKPREEQYSSTYRVVSVLTVLHQDWLNGKEYKCKVSNKALPAPIEKTISKAKGQPREPQVCTLPPSRDELTKNQVSLSCAVKGFYPSDIAVEWESNGQPENNYKTTPPVLDSDGSFFLVSKLTVDKSRWQQGNVFSCSVMHEALHNRFTQKSLSLSPGK
light: QSALTQPASVSGSPGQSITISCTGTSSDVGGYNYVSWYQQHPGKAPKLMIYDVSNRPSGVSNRFSGSKSGNTASLTISGLQAEDEADYYCSSYTSSSTRVFGTGTKVEIKRTVAAPSVFIFPPSDEQLKSGTASVVCLLNNFYPREAKVQWKVDNALQSGNSQESVTEQDSKDSTYSLSSTLTLSKADYEKHKVYACEVTHQGLSSPVTKSFNRGEC
For B1, in the assay with CD27, the “CD27 Luciferase assay with MDA-MB231 cells, activity against that of scCD27L-Fc” value is ~3 fold.

B2: aCEA-scCD40L (bispecific antibody)
heavy: EVQLLESGGGLVQPGGSLRLSCATSGFTFTDYYMNWVRQAPGKGLEWLGFIGNKANGYTTEYSASVKGRFTISRDKSKSTLYLQMNTLQAEDSAIYYCTRDRGLRFYFDYWGQGTLVTVSSASTKGPSVFPFAPSSKSTSGGTAALGCLVKDYFPEPVTVSWNSGALTSGVHTFPAVLQSSGLYSLSSVVTVPSSSLGTQTYICNVNHKPSNTKVDKKVEPKSCDKTHGSGSSSSSSQIAAHVISEASSKTTSVLQWAEKGYYTMSNNLVTLENGKQLTVKRQGLYYIYAQVTFCSNREASSQAPFIASLSLKSPGRFERILLRAANTHSSAKPCGQQSIHLGGVFELQPGASVFVNVTDPSQVSHGTGFTSFGLLKLGSGSGNGSQIAAHVISEASSKTTSVLQWAEKGYYTMSNNLVTLENGKQLTVKRQGLYYIYAQVTFCSNREASSQAPFIASLSLKSPGRFERILLRAANTHSSAKPCGQQSIHLGGVFELQPGASVFVNVTDPSQVSHGTGFTSFGLLKLGSGSGNGSQIAAHVISEASSKTTSVLQWAEKGYYTMSNNLVTLENGKQLTVKRQGLYYIYAQVTFCSNREASSQAPFIASLSLKSPGRFERILLRAANTHSSAKPCGQQSIHLGGVFELQPGASVFVNVTDPSQVSHGTGFTSFGLLKL
light: QTVLTQSPSSLSVSVGDRVTITCRASSSVTYIHWYQQKPGLAPKSLIYATSNLASGVPSRFSGSGSGTDYTFTISSLQPEDIATYYCQHWSSKPPTFGQGTKVEVKRTVAAPSVFIFPPSDEQLKSGTASVVCLLNNFYPREAKVQWKVDNALQSGNSQESVTEQDSKDSTYSLSSTLTLSKADYEKHKVYACEVTHQGLSSPVTKSFNRGEC
For B2, the binding result in the assay with human CEA is on record as “binds”.
